Source: article PMC5912465 (2018)

B1: CCL18 (ligand)
chain: AQVGTNKELCCLVYTSWQIPQKFIVDYSETSPQCPKPGVILLTKRGRQICADPNKKWVQKYISDLKLNA
B2: CCL8 (human chemokine panel) (ligand)
chain: QPDSVSIPITCCFNVINRKIPIQRLESYTRITNIQCPKEAVIFKTKRGKEVCADPKERWVRDSMKHLDQIFQNLKP
B6: CCL14 (ligand)
chain: TKTESSSRGPYHPSECCFTYTTYKIPRQRIMDYYETNSQCSKPGIVFITKRGHSVCTNPSDKWVQDYIKDMKEN
B7: CCL3 (ligand)
chain: SLAADTPTACCFSYTSRQIPQNFIADYFETSSQCSKPGVIFLTKRSRQVCADPSEEWVQKYVSDLELSA
B9: CCL3L1 (ligand)
chain: APLAADTPTACCFSYTSRQIPQNFIADYFETSSQCSKPSVIFLTKRGRQVCADPSEEWVQKYVSDLELSA

How the values were obtained:
[1] = biological target: P672(1_44)-EVA1(29_94) hybrid evasin (Rhipicephalus pulchellus | …, UniProt L7MC74;P0C8E7, K92N); assay: BLI
[2] = biological target: evasin 1 (EVA1_RHISA), C-terminally tagged (Rhipicephalus sanguineus, UniProt P0C8E7 21-114, K92N); assay: BLI
[3] = biological target: other, more extended hybrid molecules (P672_EVA1 hybrids); assay: BLI; P672(1_92):EVA1(74_94)
[4] = biological target: other, more extended hybrid molecules (P672_EVA1 hybrids); assay: BLI; P672(1_66):EVA1(47_94)
[5] = biological target: T1, CCL23 (human, UniProt P55773 22-120); assay: BLI
T1 chain: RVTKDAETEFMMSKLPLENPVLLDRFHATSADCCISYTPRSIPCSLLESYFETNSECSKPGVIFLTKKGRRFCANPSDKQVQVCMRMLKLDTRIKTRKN

[6] = biological target: T2, CCL1 (human, UniProt P22362 24-96); assay: BLI
T2 chain: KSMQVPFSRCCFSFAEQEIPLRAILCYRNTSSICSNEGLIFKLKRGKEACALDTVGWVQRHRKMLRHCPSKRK

[7] = biological target: B6; assay: BLI
[8] = biological target: B1; assay: BLI
[9] = biological target: T3, CCL16 (human, UniProt O15467 24-120); assay: BLI
T3 chain: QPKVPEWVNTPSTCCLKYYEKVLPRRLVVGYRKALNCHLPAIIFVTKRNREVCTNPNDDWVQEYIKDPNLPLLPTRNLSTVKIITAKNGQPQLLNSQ

[10] = biological target: CCL11 (human, UniProt P51671 24-97); assay: BLI
[11] = biological target: CCL7 (human, UniProt P80098 24-99); assay: BLI
[12] = biological target: CCL13 (human, UniProt Q99616 17-98); assay: BLI
[13] = biological target: B2; assay: BLI
[14] = biological target: B9; assay: BLI
[15] = biological target: CCL2 (human, UniProt P13500 24-99); assay: BLI
[16] = biological target: T4, CCL15 (human, UniProt Q16663 22-113); assay: BLI
T4 chain: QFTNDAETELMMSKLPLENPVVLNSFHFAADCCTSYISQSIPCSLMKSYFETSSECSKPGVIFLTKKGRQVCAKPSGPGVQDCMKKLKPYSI

[17] = biological target: B7; assay: BLI

Chain of CCL7 (P80098 24-99): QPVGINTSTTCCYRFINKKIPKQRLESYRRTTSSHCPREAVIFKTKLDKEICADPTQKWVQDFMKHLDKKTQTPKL
Chain of CCL11 (P51671 24-97): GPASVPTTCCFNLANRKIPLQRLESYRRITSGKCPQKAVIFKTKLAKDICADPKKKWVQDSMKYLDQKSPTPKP
Chain of CCL13 (Q99616 17-98): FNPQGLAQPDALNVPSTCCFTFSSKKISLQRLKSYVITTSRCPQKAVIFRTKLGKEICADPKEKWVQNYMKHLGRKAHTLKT

Q: How did the Kd [1] turn out when B1 was run?
A: The Kd was 6.45 nM.

Q: And the Kd [2]?
A: Its Kd is 2.02 nM.

Q: What about the Kd [3] of the same binder?
A: Its Kd is 9.75 nM.

Q: And the Kd [4]?
A: Its Kd is 3.69 nM.

Q: Which results are given for B2?
A: Kd [1]: 216 nM; Kd [3]: 397 nM; Kd [4]: 277 nM

B3: N-terminally tagged P672 (P672_RHIPU), glycosylated (natural protein)
chain: VCEVSEQEGVGEDNATEDEDYEDFFKPVTCYFANSTVGPLRPPNCTVVCTNNTAWWNDTKSDGGHCYSEYRPEKRTHSREIYNCTIGVCGNGTCIANHTYADCW
modifications: N-glycosylated (six N-glycosylated residues identified by mass spectrometry, Asn-34 among them; marked in Figure 2A)
Q: Which Kd [5] does the source give for B3 here?
A: Its Kd is 4.56 nM.

Q: What about the Kd [6] of the same binder?
A: Its Kd is 11 nM.

Q: And the Kd [7]?
A: The Kd was 5.5 nM.

Q: And the Kd [8]?
A: The Kd was 1.62 nM.

Q: And the Kd [9]?
A: Its Kd is 9.6 nM.

Q: What about the Kd [10] of the same binder?
A: Its Kd is 2.29 nM.

Q: What about the Kd [11] of the same binder?
A: The Kd was 18.6 nM.

Q: And the Kd [12]?
A: The Kd was 7.6 nM.

Q: What about the Kd [13] of the same binder?
A: Its Kd is 8.51 nM.

Q: What about the Kd [14] of the same binder?
A: Its Kd is 1.63 nM.

Q: And the Kd [15]?
A: The Kd was 21 nM.

Q: What about the Kd [16] of the same binder?
A: The Kd was 31.5 nM.

Q: And the Kd [17]?
A: Its Kd is 0.954 nM.

B4: CCL4L1 (ligand)
chain: APMGSDPPTACCFSYTARKLPRNFVVDYYETSSLCSQPAVVFQTKRGKQVCADPSESWVQEYVYDLELN
Q: B4 was tested. Which Kd [2] did it give?
A: Its Kd is 77.9 nM.

B5: CCL4 (ligand)
chain: APMGSDPPTACCFSYTARKLPRNFVVDYYETSSLCSQPAVVFQTKRSKQVCADPSESWVQEYVYDLELN
Q: For B5, which Kd [2] is on record?
A: The Kd was 233 nM.

Q: B6 was tested. Which Kd [2] did it give?
A: The Kd was 108 nM.

Q: Which Kd [2] does the source give for B7 here?
A: Its Kd is 7.3 nM.

B8: C-terminally tagged P672 (P672_RHIPU), glycosylated (natural protein)
chain: ETGVCEVSEQEGVGEDNATEDEDYEDFFKPVTCYFANSTVGPLRPPNCTVVCTNNTAWWNDTKSDGGHCYSEYRPEKRTHSREIYNCTIGVCGNGTCIANHTYADCW
modifications: glycosylated
Q: How did the Kd [5] turn out when B8 was run?
A: The Kd was 9.7 nM.

Q: And the Kd [8]?
A: The Kd was 0.9 nM.

Q: What about the Kd [13] of the same binder?
A: The Kd was 16.4 nM.

Q: What about the Kd [14] of the same binder?
A: The Kd was 5.7 nM.

Q: What about the Kd [17] of the same binder?
A: Its Kd is 13 nM.

Q: For B9, which Kd [2] is on record?
A: The Kd was 22.4 nM.
